Article PMC12561426, “Dissecting the Interplay Between NRF2 and BACH1 at CsMBEs” (Antioxidants, 2025)

Tests used:
[1] = biological target: the molecule itself; test: SEC-MALS; Superdex 75 increase 10/300, 50 mM HEPES pH 7.9, 2 mM TCEP, 500 mM NaCl, 1-2 mg protein injected; without DNA
[2] = biological target: T1, sMafG^YbbR (fluorescein-labelled sMafG^DBD-YbbR released by TEV from NRF2-TEV-sMafGχ^YbbR or … (human, UniProt O15525 1-162, fluorescein (CoA-fluorescein conjugate put on the YbbR tag by Sfp))); test: native gel or EMSA; competition: fluorescein-labelled chimera (150 nM) assembled on Cy5-labelled dsDNA (3 nM) with TEV and 3C 4 h at 25 C, then the DBD competitor (150 nM-1.5 uM) added, overnight at 4 C; 10% non-denaturing gel, Cy5 and fluorescein scans; details: both partners purified
T1 construct: small Maf protein G (sMafG), human, residues 1-162, the C-terminal half of the chimeric constructs; source: cut from the chimera by TEV in the assay; not shown: linker with 6xHis and TEV site, N-terminal, cleaved

[3] = biological target: T2, sMafG^DBD released by TEV from NRF2-sMafGχ or BACH1-sMafGχ (human, UniProt O15525 1-162); test: native gel or EMSA; chimeric constructs (0-300 nM) titrated on fluorescein-labelled CsMBE dsDNA (3 nM) with TEV and 3C proteases 4 h at 25 C; 150 mM NaCl, 50 mM HEPES pH 7.9, 10% glycerol, 1 mM TCEP, 1 mM DTT, 2 mM MgCl2; 6% non-denaturing gel; heterodimer on DNA; details: both partners purified
T2 construct: small Maf protein G (sMafG), human, residues 1-162, the C-terminal half of the chimeric constructs; also called sMafG of NRF2/sMafG and BACH1/sMafG; sMafG^DBDχ; source: E. coli One Shot BL21 Star (DE3), purified as the chimera (HisTrap, heparin, SEC); cut from the chimera by 3C and TEV in the assay; not shown: linker with 6xHis and TEV site, N-terminal, cleaved

Row | Binder | binding result [2] | binding result [3] | stoichiometry N [1]
1 | BACH1^DBD (domain or fragment, The His-tag is called cleavable; TEV and 3C proteases were present in the EMSA samples; also called BACH1^DBD-3C-6xHis; source: E. coli One Shot BL21 Star (DE3), purified (HisTrap, heparin, SEC)) not shown | binds |  | 2
2 | BACH1^DBD with the uncleaved 6xHis linker (released by TEV from BACH1-TEV-sMafGχ^YbbR) (domain or fragment, The linker stays on this chain and gives the supershift; also called BACH1^DBD-6xHis-TEV; BACH1 of BACH1/sMafG^YbbR; source: cut from the chimera by TEV in the assay; not shown: linker with 6xHis (3C site removed, up to the TEV site), C-terminal, kept) not shown | binds |  | 
3 | BACH1^DBD released by 3C from BACH1-sMafGχ (domain or fragment, also called BACH1 of BACH1/sMafG; source: E. coli One Shot BL21 Star (DE3), purified as the chimera (HisTrap, heparin, SEC); cut from the chimera by 3C and TEV in the assay; not shown: linker with 3C site and 6xHis, C-terminal, cleaved) not shown |  | binds | 
4 | NRF2^DBD (domain or fragment, human, UniProt Q16236 451-567, looked up, The His-tag is called cleavable; TEV and 3C proteases were present in the EMSA samples; also called NRF2^DBD-3C-6xHis; source: E. coli One Shot BL21 Star (DE3), purified (His-tag purification, heparin)) EAHLTRDELRAKALHIPFPVEKIINLPVVDFNEMMSKEQFNEAQLALIRDIRRRGKNKVAAQNCRKRKLENIVELEQDLDHLKDEKEKLLKEKGENDKSLHLLKKQLSTLYLEVFSM | binds |  | 

Second part, led by results:

Row | binding result [2] | binding result [3] | Binder | stoichiometry N [1]
5 | binds |  | NRF2^DBD with the uncleaved 6xHis linker (released by TEV from NRF2-TEV-sMafGχ^YbbR) (domain or fragment, human, UniProt Q16236 451-567, looked up, The linker stays on this chain and gives the supershift; also called NRF2^DBD-6xHis-TEV; NRF2 of NRF2/sMafG^YbbR; source: cut from the chimera by TEV in the assay; not shown: linker with 6xHis (3C site removed, up to the TEV site), C-terminal, kept) EAHLTRDELRAKALHIPFPVEKIINLPVVDFNEMMSKEQFNEAQLALIRDIRRRGKNKVAAQNCRKRKLENIVELEQDLDHLKDEKEKLLKEKGENDKSLHLLKKQLSTLYLEVFSM | 
6 |  | binds | NRF2^DBD released by 3C from NRF2-sMafGχ (domain or fragment, human, UniProt Q16236 451-567, looked up, also called NRF2 of NRF2/sMafG; source: E. coli One Shot BL21 Star (DE3), purified as the chimera (HisTrap, heparin, SEC); cut from the chimera by 3C and TEV in the assay; not shown: linker with 3C site and 6xHis, C-terminal, cleaved) EAHLTRDELRAKALHIPFPVEKIINLPVVDFNEMMSKEQFNEAQLALIRDIRRRGKNKVAAQNCRKRKLENIVELEQDLDHLKDEKEKLLKEKGENDKSLHLLKKQLSTLYLEVFSM | 
